# Measurements reported in patent US20250346638.
# System: TNF ATF 3 (synthetic construct)
# Test: cell_activity
# Conditions: TNF ELISA about 100 pg/mL with CD3/CD28 Dynabeads vs shock; about 3-fold with stimulation cocktail and BFA (FIG. 15)
# Chain of TNF ATF 3 (synthetic construct) (chain, as listed by the source): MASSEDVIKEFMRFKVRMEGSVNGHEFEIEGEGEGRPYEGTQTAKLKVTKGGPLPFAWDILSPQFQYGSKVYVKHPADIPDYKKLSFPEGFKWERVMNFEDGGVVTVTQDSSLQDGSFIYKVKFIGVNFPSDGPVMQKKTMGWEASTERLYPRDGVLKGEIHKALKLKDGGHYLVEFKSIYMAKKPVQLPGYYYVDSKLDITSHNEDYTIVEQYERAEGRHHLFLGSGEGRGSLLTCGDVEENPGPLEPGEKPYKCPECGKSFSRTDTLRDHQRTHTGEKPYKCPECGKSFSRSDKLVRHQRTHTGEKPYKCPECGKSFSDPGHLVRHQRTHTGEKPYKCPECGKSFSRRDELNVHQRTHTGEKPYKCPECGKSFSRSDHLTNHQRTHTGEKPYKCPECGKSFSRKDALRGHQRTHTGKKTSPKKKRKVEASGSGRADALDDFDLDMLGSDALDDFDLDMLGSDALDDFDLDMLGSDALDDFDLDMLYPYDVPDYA
substance,measurement,value
TNF promoter ATF 3 target,activity,5 fold
